What all share (assay): BLI; Octet RED96; client biotinylated and loaded on streptavidin sensors; Spy or Spy variant in solution at 0.25, 0.5, 1, 1.5 and 2 μM; 40 mM HEPES, 150 mM NaCl, pH 7.5; Kd calculated as koff/kon
Details in all cases: both partners purified

One assay concerns the target T1, Spy_(29-138) (UniProt P77754 52-161).
T1 construct: source: E. coli BL21 (DE3), purified (Ni-NTA, cation exchange, SEC); not shown: His6, N-terminal, cleaved; SUMO, N-terminal, cleaved
T1 sequence (looked up): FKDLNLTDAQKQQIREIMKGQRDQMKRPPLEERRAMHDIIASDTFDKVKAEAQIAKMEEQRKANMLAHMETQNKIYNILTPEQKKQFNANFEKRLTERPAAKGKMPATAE
An outline of the steps:
(§1)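 Client proteins were biotinylated with EZ-link NHS-biotin at a 1:1 molar ratio, loaded onto streptavidin sensors, and measured by biolayer interferometry on an Octet RED96. The loaded sensors were dipped into 40 mM HEPES, 150 mM NaCl, pH 7.5 holding the analyte protein at 0.25, 0.5, 1, 1.5 or 2 μM, then moved to buffer without it. Fitting the wavelength-shift association and dissociation curves in SigmaPlot 12.0 gave the observed association rate and koff, kon was taken from the observed rate plotted against analyte concentration, and Kd was calculated as koff/kon.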

In assay [1] the target is T2, Spy wild type (Spy_(1-138)) (UniProt P77754 24-161).
T2 construct: Spy, ATP-independent periplasmic chaperone; also called WT; wt; source: E. coli BL21 (DE3), purified (Ni-NTA, cation exchange, SEC); not shown: His6, N-terminal, cleaved; SUMO, N-terminal, cleaved
T2 sequence (looked up): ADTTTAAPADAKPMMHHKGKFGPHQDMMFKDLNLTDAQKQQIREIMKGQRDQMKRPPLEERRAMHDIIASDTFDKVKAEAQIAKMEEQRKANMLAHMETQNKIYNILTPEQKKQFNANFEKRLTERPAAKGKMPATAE
An outline of the steps: as §1

A further assay concerns the target T3, Spy_(1-124) (UniProt P77754 24-147).
T3 construct: source: E. coli BL21 (DE3), purified (Ni-NTA, cation exchange, SEC); not shown: His6, N-terminal, cleaved; SUMO, N-terminal, cleaved
T3 sequence (looked up): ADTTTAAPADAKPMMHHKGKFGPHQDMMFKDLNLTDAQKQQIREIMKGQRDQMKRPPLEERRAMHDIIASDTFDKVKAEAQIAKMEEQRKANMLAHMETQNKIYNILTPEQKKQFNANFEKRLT
An outline of the steps: as §1

For a further assay, the target named is T4, Spy_(21-127) (UniProt P77754 44-150).
T4 construct: Spy chaperone, residues 21-127; source: E. coli BL21 (DE3), purified (Ni-NTA, cation exchange, SEC); not shown: His6, N-terminal, cleaved; SUMO, N-terminal, cleaved
T4 sequence (looked up): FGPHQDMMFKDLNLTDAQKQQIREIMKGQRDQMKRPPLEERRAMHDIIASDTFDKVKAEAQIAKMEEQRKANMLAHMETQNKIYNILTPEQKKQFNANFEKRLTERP
An outline of the steps: as §1

A further assay has as its target T5, Spy_(27-127) (UniProt P77754 50-150).
T5 construct: Spy chaperone, residues 27-127; source: E. coli BL21 (DE3), purified (Ni-NTA, cation exchange, SEC); not shown: His6, N-terminal, cleaved; SUMO, N-terminal, cleaved
T5 sequence (looked up): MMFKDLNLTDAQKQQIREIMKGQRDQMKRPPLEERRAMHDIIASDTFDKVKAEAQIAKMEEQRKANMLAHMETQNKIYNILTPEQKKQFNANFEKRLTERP
An outline of the steps: as §1

The target in another assay is T6, Spy_(21-124) (UniProt P77754 44-147).
T6 construct: source: E. coli BL21 (DE3), purified (Ni-NTA, cation exchange, SEC); not shown: His6, N-terminal, cleaved; SUMO, N-terminal, cleaved
T6 sequence (looked up): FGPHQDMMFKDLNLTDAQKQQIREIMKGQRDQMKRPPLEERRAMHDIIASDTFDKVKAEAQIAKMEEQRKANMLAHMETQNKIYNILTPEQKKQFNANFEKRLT
An outline of the steps:
as §1

The target of the next assay is T7, Spy_(29-124) (UniProt P77754 52-147).
T7 construct: also called termini-free Spy; source: E. coli BL21 (DE3), purified (Ni-NTA, cation exchange, SEC); not shown: His6, N-terminal, cleaved; SUMO, N-terminal, cleaved
T7 sequence (looked up): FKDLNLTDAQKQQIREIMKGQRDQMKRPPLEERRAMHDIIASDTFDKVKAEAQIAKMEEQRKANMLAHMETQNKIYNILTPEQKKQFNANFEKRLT
An outline of the steps: as §1

Another assay deals with T8, Spy_(24-130) (UniProt P77754 47-153).
T8 construct: Spy chaperone, residues 24-130; source: E. coli BL21 (DE3), purified (Ni-NTA, cation exchange, SEC); not shown: His6, N-terminal, cleaved; SUMO, N-terminal, cleaved
T8 sequence (looked up): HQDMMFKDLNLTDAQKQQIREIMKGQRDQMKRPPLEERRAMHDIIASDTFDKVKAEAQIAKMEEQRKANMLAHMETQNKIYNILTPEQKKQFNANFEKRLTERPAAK
An outline of the steps:
as §1

B1: Im7 H40W L53A I54A (natural protein)
chain: MELKNSISDYTEAEFVQLLKEIEKENVAATDDVLDVLLEWFVKITEHPDGTDAAYYPSDNRDDSPEGIVKEIKEWRAANGKPGFKQG
modifications: biotin (EZ-link NHS-biotin, 1:1 molar ratio of biotin to protein)
notes: Im7 (colicin E7 immunity protein) with H40W L53A I54A; Spy was made with an N-terminal His6-SUMO tag that was cleaved; also called Im7AAW; partially folded client; source: purified by a similar procedure to Spy
In the case of B1, the koff (usually the first-order rate constant of dissociation) in the assay with Spy_(29-138) is 0.0893 s⁻¹; in assay [1], 0.179 s⁻¹; with Spy_(1-124), 0.188 s⁻¹; in the assay with Spy_(21-127) it was 0.512 s⁻¹; with Spy_(27-127), 0.0933 s⁻¹; with Spy_(21-124), 0.487 s⁻¹. Moreover, the results for the off-rate constant (koff) in the assay with Spy_(29-124) and in the assay with Spy_(24-130) were 0.089 s⁻¹ and 0.3 s⁻¹, respectively.

The record behind these values is publication PMC9122904, “Insights into the client protein release mechanism of the ATP-independent chaperone Spy” (Nature Communications, 2022).
